# In paper PMC2843815 (Protein expression and purification, 2010):
# B1: Bor1p (natural protein, S. cerevisiae)
# chain: MSNESTRVTVSRGCTASDECAQALERTNDELDRESSVSESRSDEESHEKLSRRRFPTLGIGIWLDLKDRIPYYKSDWVDAFNYRVIPSIVDTYFNNLLPAIAFAQDMFDRTDNSYGVNEVLLSSAMAGIVFGVLGGQPLCIVGVTGPISIFNYTVYEIIKPLNTSYFGFMFWICMWSMIFHLVLAFTNAVCLLQYVTTFPCDIFGLFINVVYIQKGIQILTRQFSAKSGEKSVQDGFASVVVALVMTAFGLFFKLFHYYPLFSHRIRTFISDYSTALSVLFWSSFTHFGGYLHDVKFKKLPITKAFFPTSKVNRPQNTWLAYEPIPVKDVFIALPFGIFLTILFYFDHNVSSLMAQRHQYKLKKPSSFHYDFALLGLTTCISGVLGIPAPNGLIPQAPLHTETLLVRDSNQKVISCVEQRFTNTFQGLMILGTMTRPLLVCLGEIPQAVLSGLFFIMGINGLMTNSIIQRLVFLFSDPNRRDNTSPLMKVSKKSMLIFLSFSLTGFAGEFAITNTIAAIGFPLVLLLSVLVSFSFAYIFPTEELKILDTNVAQKFTIKNLLLENIRDAKFCDKHEDSGLEVLFQ
# Biological target: the molecule itself
# Test: SEC-MALS
protein,measurement,value
B1,stoichiometry N,2
